Laboratory results: US10526416B2, “Anti-HER3 antibodies and uses of same” (Yeda Research and Development Co. Ltd., priority 2014, dated 2020)

Assays:
denatured form of HER3 = denatured form of HER3 (Homo sapiens, UniProt P21860); experiment: Western blot detection of HER3 in T47D cell lysate (mAb as primary Ab); format: binding
Description: FIGS. 1A-E show hybridoma Screening and mAb Isotyping. (FIG. 1A) Mice were immunized with recombinant IgB3. (FIG. 1B) The hybridoma supernatant screening using ELISA, was performed on 96 well-plate coated with IgB3 (1 μg/ml) or with a human IgG. The plates were blocked with PBS-1% BSA and incubated for 1 h with hybridoma supernatants, followed by a second incubation for 1 h with HRP-labeled anti-mouse IgG and subsequently detected by 2,2′-azino-bis (3-ethylbenzothiazoline-6-sulfonic acid) addition. The OD at 415 nm was then measured using an ELISA microplate reader. (FIG. 1C) The second step of the screening was performed by immunoprecipitation (IP). Anti-mouse IgG beads were incubated first with the hybridoma supernatant and subsequently with total cell lysate from HER3-expressing T47D cells. (FIG. 1D) The mAbs directed to HER3 were isotyped using ELISA. […] (FIG. 1E) Finally the ability of the mAbs to detect HER3, used as primary Ab in a Western Blot experiment, was determined on cell lysate from T47D cells.
Cells were grown under specified conditions or treated as indicated. […] Antibody binding to membrane blots was detected using horseradish peroxidase-secondary antibodies (Jackson ImmunoResearch Laboratories), followed by treatment with ECL Western blotting detection reagents (GE Healthcare). […]

BXPC3-luc cells = experiment: Antibody-dependent cellular cytotoxicity (ADCC) luciferase assay with human PBMC; format: cell-based; conditions: 24 h
Description: (FIGS. 5A and 5B) The mAb ability to degrade HER3 after cell treatment was determined as follows. N87 cells were treated for 3 h at 37° C. with 10 μg/ml mAb. After cell lysis and protein extraction, the samples were subjected to immunoblotting with the indicated Ab. (FIG. 5C) The experiment shown in FIG. 5A was performed on 6 other cancer cell lines. (FIG. 5D) The mAb capacity to induce ADCC is reported. BXPC3-luc cells were incubated with the indicated mAbs and secondarily with human PBMC cells for 24 h. Cell killing was detected by measuring the luminescence after final addition of luciferine. *** […], ANOVA and post hoc tests.
ADCC was evaluated with a luciferase-activity assay. Using 96-well white plates, BXPC3-luc (4,000 cells/well) were pre-incubated for 30 min with the indicated antibodies. Ficoll-purified human peripheral blood mononuclear cells (PBMCs) from buffy coat were then added at a 10:1 effector to target cell ratio (E:T). […] Bioluminescence was determined using the Wallac Trilux 1450 Microbeta liquid scintillation and luminescence counter (Perkin-Elmer, MA). Percentage of cellular cytotoxicity was calculated using the following formula: percentage of specific lysis=[bioluminescence in experimental point−basal bioluminescence]/[bioluminescence in total lysis−basal bioluminescence]×100. […]

Sequence of denatured form of HER3 (P21860 20-1342): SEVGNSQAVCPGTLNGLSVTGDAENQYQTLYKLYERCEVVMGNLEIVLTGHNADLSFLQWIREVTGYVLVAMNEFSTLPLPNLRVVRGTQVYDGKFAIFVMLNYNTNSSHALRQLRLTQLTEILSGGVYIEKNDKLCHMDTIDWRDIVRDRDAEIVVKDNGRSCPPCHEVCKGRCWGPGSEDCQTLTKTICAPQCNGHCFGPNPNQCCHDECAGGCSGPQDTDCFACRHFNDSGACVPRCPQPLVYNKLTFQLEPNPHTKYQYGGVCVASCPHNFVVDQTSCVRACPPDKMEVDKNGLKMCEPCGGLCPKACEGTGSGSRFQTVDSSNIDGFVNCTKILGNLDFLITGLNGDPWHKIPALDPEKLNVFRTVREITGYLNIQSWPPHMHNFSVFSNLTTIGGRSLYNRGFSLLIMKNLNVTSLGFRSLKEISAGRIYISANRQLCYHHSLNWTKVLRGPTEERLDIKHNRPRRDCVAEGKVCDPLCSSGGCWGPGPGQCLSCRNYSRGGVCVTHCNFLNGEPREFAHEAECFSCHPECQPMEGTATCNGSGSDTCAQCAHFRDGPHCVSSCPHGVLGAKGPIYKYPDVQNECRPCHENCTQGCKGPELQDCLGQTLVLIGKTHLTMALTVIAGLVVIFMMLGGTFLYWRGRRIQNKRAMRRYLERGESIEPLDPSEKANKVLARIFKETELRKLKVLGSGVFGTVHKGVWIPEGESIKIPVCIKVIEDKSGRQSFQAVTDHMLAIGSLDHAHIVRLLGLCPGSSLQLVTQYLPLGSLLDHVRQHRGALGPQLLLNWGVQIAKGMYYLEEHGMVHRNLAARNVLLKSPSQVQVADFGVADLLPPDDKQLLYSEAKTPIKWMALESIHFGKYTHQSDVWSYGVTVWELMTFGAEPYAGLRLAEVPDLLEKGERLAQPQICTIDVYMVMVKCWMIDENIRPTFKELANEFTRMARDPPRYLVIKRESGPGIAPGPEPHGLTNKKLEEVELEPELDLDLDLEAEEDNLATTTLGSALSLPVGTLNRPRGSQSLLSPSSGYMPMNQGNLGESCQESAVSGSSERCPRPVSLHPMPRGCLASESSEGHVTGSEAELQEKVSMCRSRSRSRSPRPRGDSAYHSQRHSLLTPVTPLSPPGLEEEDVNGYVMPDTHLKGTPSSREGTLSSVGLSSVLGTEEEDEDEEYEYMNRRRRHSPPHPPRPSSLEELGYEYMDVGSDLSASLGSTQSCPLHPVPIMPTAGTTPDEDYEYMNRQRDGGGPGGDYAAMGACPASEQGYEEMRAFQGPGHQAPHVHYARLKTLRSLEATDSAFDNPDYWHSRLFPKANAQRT

B1: NG83: anti-HER3 mAb; light chain CDRs SEQ ID NOs: 7-9, heavy chain CDRs 10-12 (antibody, V domains shown)
VH: QIQLVQSGPELKKRGETVKISCKASGYTFTNYGMNWVRQAPGKGLKCMGWINTYAGEPTYADDFKGRFAFSLDSSASTAYLQINNLKNEDMATYFCARGGITGAMDYWGQGTSVTVSS
VL: DVVMTQKTSSLSTSLGDRVTISCRASQDIRNYLNWYQQKPDGTVKLLIYYTSRLHSGVPSRFSGSGSGTDYSLTISDLEQEDIATYFCQQGNTLPWTFGGGTKLAIK
modifications: VH chain of NG83 polypeptide; VL chain of NG83 polypeptide
Denatured form of HER3
  recognition of HER3 in western blotting: able to recognize the denatured form of HER3
BXPC3-luc cells
  induction of ADCC: strongly or moderately induced ADCC
